Measurements reported in publication PMC3680705 (The Journal of biological chemistry, 2006).

Target: T1, Drosophila Slit D2 (second leucine-rich repeat domain) (Drosophila, UniProt P24014 310-526, two N-linked glycans)
T1 sequence: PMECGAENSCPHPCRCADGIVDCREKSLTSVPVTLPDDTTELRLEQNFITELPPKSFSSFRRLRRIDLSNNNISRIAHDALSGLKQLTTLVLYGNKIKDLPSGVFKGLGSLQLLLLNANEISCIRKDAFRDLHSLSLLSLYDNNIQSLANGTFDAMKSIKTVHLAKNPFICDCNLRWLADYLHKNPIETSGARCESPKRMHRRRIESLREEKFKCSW
Assay: SEC

B1: Drosophila Robo IG1–2 (domain or fragment)
chain: not shown
stoichiometry N: 1
